The assay has as its target HIV-1 reverse transcriptase p51 (isolated polymerase domain) with the C38V/C280S/M357T substitutions, no affinity tag (HIV-1). Briefly: SEC; Superdex 200 Increase 5/150, SEC buffer 50 mM Bis-Tris, 1 M NaCl, 1 mM CDTA, pH 6.5; samples 80% SEC buffer, 20% glycerol; [NaCl] varied 0.15-1.0 M and [p51] varied 10-80 µM; monomer to dimer. Background: Size exclusion chromatography separates by hydrodynamic size, large species first.

A word on the stoichiometry N: it is a count of units in the complex or per binding partner. Substance “HIV-1 reverse transcriptase p51 (isolated polymerase domain) with the C38V/C280S/M357T substitutions, no affinity tag (domain or fragment)” yielded a stoichiometry N of 2.

(Values after publication PMC10669680.)
